Patent publication US20210147847, “APTAMERS FOR TARGETED ACTIVATON OF T CELL-MEDIATED IMMUNITY” (Rheinische Friedrich-Wilhelms-Universitat Bonn, published 2021)

Target: T1, Fc-CTL (mannose receptor CTLD4-7 fused to human IgG1 Fc) (Mus musculus, UniProt Q61830 Q61830:655-1212)
T1 chain: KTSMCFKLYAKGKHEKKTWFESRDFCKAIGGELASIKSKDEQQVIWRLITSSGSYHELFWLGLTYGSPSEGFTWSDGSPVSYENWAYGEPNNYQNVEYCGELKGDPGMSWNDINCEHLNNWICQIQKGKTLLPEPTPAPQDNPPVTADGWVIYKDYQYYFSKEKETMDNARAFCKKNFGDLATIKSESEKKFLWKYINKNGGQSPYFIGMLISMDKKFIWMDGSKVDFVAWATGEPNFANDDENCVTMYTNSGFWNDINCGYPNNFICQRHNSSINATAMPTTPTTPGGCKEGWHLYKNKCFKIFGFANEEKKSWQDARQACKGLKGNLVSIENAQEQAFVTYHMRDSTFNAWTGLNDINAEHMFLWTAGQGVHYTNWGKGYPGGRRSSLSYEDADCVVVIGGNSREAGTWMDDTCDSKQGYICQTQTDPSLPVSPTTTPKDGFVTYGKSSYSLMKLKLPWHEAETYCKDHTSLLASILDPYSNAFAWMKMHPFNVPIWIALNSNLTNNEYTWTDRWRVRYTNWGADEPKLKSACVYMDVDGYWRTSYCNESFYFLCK
Assay: filter; 500 nM protein, PBS, 1 mM MgCl2, 1 mM CaCl2, BSA, 37 C; more than 2-fold higher than Fc-FN
Settings: tags: human IgG1 Fc fusion; expressed in HEK293T from pIgplus-CTLD4-7; protein G purified; chain copies: 2; label: 5'-32P or 5'-ATTO 647N
Method: Representative DNA sequences of each motif family (FIG. 14A-B), namely CTL #5, CTL #9, CTL #6 and CTL #16, and unique sequences CTL #1, #2, #3, #14 and #18 (FIG. 39) were chosen for further analysis. Therefore, their binding ability to Fc-CTL, Fc-FN and the IgG1 Fc protein tag was monitored by radioactive filter retention assay (FIG. 15). DNA was end labeled with ³²P and mixed with the corresponding proteins at a concentration of 500 nM. The mixtures were incubated in selection buffer for 30 minutes at 37° C. and applied on a nitrocellulose membrane. Finally, the amount of bound DNA was detected by autoradiography.

B1: CTL #5 (ssDNA)
DNA: GCTGTGTGACTCCTGCAATGCAATCTAGCTGACAATGGGGGGGAAGAATGTGGGTGGGTGGCAGCTGTATCTTGTCTCC
Question: Does B1 bind?
Answer: Result: binds
